# Target: LFA-1 (Homo sapiens, UniProt P20701)
# Test: BLI
# Chain of LFA-1 (P20701 26-1170, chain 1 of 2): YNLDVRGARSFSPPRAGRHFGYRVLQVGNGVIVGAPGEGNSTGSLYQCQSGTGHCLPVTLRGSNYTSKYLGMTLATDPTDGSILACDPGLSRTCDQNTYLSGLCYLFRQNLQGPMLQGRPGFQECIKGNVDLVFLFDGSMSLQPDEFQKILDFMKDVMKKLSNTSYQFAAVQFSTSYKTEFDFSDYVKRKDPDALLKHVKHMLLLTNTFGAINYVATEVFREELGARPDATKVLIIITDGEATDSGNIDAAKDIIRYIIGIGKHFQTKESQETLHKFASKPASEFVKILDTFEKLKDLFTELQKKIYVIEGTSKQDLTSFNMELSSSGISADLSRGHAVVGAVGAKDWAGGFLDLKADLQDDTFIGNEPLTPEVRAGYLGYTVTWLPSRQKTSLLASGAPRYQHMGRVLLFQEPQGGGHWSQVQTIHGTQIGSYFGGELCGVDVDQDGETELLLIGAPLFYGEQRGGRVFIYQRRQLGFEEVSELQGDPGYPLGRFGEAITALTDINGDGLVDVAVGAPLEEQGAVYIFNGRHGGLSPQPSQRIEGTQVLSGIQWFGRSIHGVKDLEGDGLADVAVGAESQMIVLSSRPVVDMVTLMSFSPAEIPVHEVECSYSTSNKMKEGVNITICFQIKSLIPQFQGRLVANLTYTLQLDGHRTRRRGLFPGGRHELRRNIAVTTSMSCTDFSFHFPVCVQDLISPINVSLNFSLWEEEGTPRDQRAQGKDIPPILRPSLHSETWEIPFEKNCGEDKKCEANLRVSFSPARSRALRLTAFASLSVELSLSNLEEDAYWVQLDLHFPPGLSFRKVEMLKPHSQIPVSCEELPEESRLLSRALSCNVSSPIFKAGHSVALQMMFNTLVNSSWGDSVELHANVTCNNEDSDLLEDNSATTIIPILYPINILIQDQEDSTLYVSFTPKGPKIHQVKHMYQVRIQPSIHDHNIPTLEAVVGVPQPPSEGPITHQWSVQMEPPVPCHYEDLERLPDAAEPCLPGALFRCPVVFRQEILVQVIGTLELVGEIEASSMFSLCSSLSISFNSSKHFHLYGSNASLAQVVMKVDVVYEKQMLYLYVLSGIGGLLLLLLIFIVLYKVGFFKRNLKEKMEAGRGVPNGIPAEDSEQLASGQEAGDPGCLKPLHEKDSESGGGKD
# Chain of LFA-1 (chain, as listed by the source, chain 2 of 2): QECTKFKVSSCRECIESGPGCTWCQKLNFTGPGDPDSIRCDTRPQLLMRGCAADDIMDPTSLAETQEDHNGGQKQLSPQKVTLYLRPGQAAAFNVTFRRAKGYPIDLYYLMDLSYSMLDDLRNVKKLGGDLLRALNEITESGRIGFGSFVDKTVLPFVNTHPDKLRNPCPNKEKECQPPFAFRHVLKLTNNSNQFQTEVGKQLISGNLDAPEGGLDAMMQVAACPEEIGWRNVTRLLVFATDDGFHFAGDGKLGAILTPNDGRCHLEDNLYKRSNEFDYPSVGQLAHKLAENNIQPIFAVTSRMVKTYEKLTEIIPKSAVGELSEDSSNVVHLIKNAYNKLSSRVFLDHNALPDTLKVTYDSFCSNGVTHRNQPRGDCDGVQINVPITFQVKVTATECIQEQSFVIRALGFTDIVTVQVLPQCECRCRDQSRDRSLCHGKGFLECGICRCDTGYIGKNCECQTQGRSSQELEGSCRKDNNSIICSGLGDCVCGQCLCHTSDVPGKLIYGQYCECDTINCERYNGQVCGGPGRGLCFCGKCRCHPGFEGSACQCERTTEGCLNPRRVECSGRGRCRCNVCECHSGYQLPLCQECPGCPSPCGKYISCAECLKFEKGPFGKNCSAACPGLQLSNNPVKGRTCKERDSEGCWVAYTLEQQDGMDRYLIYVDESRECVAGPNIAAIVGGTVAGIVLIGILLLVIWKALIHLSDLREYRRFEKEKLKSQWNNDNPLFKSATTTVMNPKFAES
binder,measurement,value
GBP-130 ectodomain (protein) MRLSKVSDIKSTGVSNYKNFNSKNSSKYSLMEVSKKNEKKNSLGAFHSKKILLIFGIIYVVLLNAYICGDKYEKAVDYGFRESRILAEGEDTCARKEKTTLRKSKQKTSTRTVATQTKKDEENKSVVTEEQKVESDSEKQKRTKKVVKKQINIGDTENQKEGKNVKKVIKKEKKKEESGKPEENKHANEASKKQEPKASKVSQKPSTSTRSNNEVKIRAASNQETLTSADPEGQIMREYAADPEYRKHLEIFYKILTNTDPNDEVERRNADNKEDLTSADPEGQIMREYASDPEYRKHLEIFYKILTNTDPNDDVERRNADNKEDLTSADPEGQIMREYAADPEYRKHLEVFHKILTNTDPNDEVERRNADNKEDLTSADPEGQIMREYAADPEYRKHLEVFHKILTNTDPNDEVERRNADNKELTSSDPEGQIMREYAADPEYRKHLEVFHKILTNTDPNDEVERRNADNKEDLTSADPEGQIMREYAADPEYRKHLEVFHKILTNTDPNDEVERRNADNKEDLTSADPEGQIMREYAADPEYRKHLEIFHKILTNTDPNDEVERRNADNKEDLTSADPEGQIMREYAADPEYRKHLEIFYKILTNTDPNDEVERRNADNKEELTSSDPEGQIMREYAADPEYRKHLEIFHKILTNTDPNDEVERRNADNKEDLTSADPEGQIMREYAADPEYRKHLEIFYKILTNTDPNDEVERRNADNKEDLTSADPEGQIMREYASDPEYRKHLEIFYKILTNTDPNDDVERRNADNKEDLTSADPEGQIMREYAADPEYRKHLEVFHKILTNTDPNDEVERQNADNNEA,Kd,15 nM
